Reference: patent publication US20040009502A1 (published 2004)

B1: mRBT1N121 fused to the GAL4 activation domain (pGADT7-mRBT1N121) (other, mouse, UniProt Q9ERC3 1-121, looked up, not shown: large carriers)
chain: MGGLKRKHSDLEEEEEEEKWDWSPTALRSYQQALLRISLDKVQRSLGPRAPSLRRHVLIHNTLQQLQAAIRLAPAPALPPEPLFLGEEDFSLSTTIGSILRELDTSMDEMEPPLNPAASSS
notes: Made by removing the Xho I fragment from pGADT7-mRBT1
B2: mRBT1C76 fused to the GAL4 activation domain (pGADT7-mRBT1C76) (other, UniProt P04386 768-881, looked up)
chain: ANFNQSGNIADSSLSFTFTNSSNGPNLITTQTNSQALSQPIASSNVHDNFMNNEITASKIDDGNNSKPLSPGWTDQTAYNAFGITTGMFNTTTMDDVYNYLFDDEDTPPNPKKEPQNEIVSQADPVFLEALSSRYLGDSGLDDFFLDIDTSAVEKDVALPPPEPPHSLFCSPGSWEWNELDHIMEIILGS
notes: PCR product encoding the C-terminal 76 amino acids of mRBT1 cloned into EcoR I and Sma I sites of pGADT7; also called C-terminal 76 amino acids of mRBT1
B3: mouse Replication Protein Binding Trans-Activator (mRBT1) fused to the GAL4 activation domain (pGADT7-mRBT1) (other, UniProt Q9ERC3 1-197, looked up, not shown: large carriers)
chain: MGGLKRKHSDLEEEEEEEKWDWSPTALRSYQQALLRISLDKVQRSLGPRAPSLRRHVLIHNTLQQLQAAIRLAPAPALPPEPLFLGEEDFSLSTTIGSILRELDTSMDEMEPPLNPAASSSPQNEIVSQADPVFLEALSSRYLGDSGLDDFFLDIDTSAVEKDVALPPPEPPHSLFCSPGSWEWNELDHIMEIILGS

Experiments:
[1] = biological target: T1, mLATS2b fused to the GAL4 DNA binding domain (pGBKT7-mLATS2b) (mouse, UniProt P04386 1-147 (Saccharomyces cerevisiae entry)); assay: yeast two-hybrid (growth on quadruple dropout plates)
T1 construct: expressed in yeast AH109; also called clone 3-1; mLATS2/2b

[2] = biological target: T2, mLATS2N96 fused to the GAL4 DNA binding domain (pGBKT7-mLATS2N96) (mouse, UniProt P04386 1-147 (Saccharomyces cerevisiae entry)); assay: as above
T2 construct: Made by removing the Pst I fragment from pGBKT7-mLATS2b; also called N-terminal 96 amino acids of mLATS2/2b

[3] = biological target: T3, mLATS2 fused to the GAL4 DNA binding domain (pGBKT7-mLATS2) (mouse, UniProt P04386 1-147; Q7TSJ6 1-1042); assay: as above
T3 construct: Made by inserting the Bsm I-Xho I fragment of pcDNA3-mLATS2 into pGBKT7-mLATS2b; also called mLATS2/2b

[4] = biological target: T1, mLATS2b fused to the GAL4 DNA binding …; assay: yeast two-hybrid

Binder	binding result [1]	binding result [2]	binding result [3]	binding result [4]
B1	binds	no binding		
B2	no binding		no binding	
B3		no binding		binds
